{"source": "patent US20250114431A1", "about": "“COMPOUND, COMPOSITION AND METHODS FOR LOWERING CIRCULATING GLUCOSE” (THE HONG KONG POLYTECHNIC UNIVERSITY, priority 2023, published 2025)", "key": {"HFD-fed obese mice": {"tested_on": "HFD-fed obese mice", "assay": "Recombinant Plac9 in high-fat diet (HFD)-induced obese, diabetic (DM2) mouse model, biometric data and glucose tolerance test", "type": "in vivo, C57BL/6J mice", "conditions": "vs PBS control", "method": "Turning to FIG. 2A, 8-week-old male C57BL/6J mice (n=8) were fed with a high-fat diet (HFD) for 12 weeks to induce a diabetes mellitus type 2 (DM2) model and then treated with 2 mg/kg (per body weight; hereinafter as “BW”) of recombinant mouse Plac9 (synthesized and purified from E. coli expressing mouse Plac9 represented by SEQ ID NO: 2; hereinafter as “mPLAC9”) once daily via intraperitoneal (i.p.) injection for 18 days to evaluate its effects on glucose uptake and tolerance in an obese, diet-induced diabetic model. Body weight (FIG. 2B), fasting blood glucose level (FIG. 2C), feeding blood glucose level (FIG. 2D) and blood insulin level (FIG. 2E) were measured at the beginning of the i.p. injection and then once every 3 days until the end of the experiment (i.e., Day 3, 6, 9, 12, 15 and 18). Another group of HFD-fed mice was injected with PBS once daily and measured with the same biometric data as in the Plac9-injected group (treatment group) once every 3 days from the beginning of the injection until the end of the experiment.\nGlucose tolerance test (GTT) was also performed in both the treatment and control groups at Day 0 and Day 15 of the experiment. […] At Day 15, the overall blood glucose level was also lower in the treatment group than that of the control group over the 90-minute time course (FIGS. 2H-2I)."}, "[1]": {"tested_on": "STZ-induced diabetic mice", "assay": "Recombinant Plac9 in streptozotocin (STZ)-induced insulin-deficient diabetic mouse model, biometric data and glucose tolerance test", "type": "in vivo, C57BL/6J mice", "method": "Turning to FIG. 3A, 8-week-old male C57BL/6J mice (n=8) which were fed with standard chow (STC) diet were treated with streptozotocin (STZ) for 5 days to induce diabetes. Similar to Example 1, 2 mg/kg (BW) of recombinant mPLAC9 was administered to the STZ-induced diabetic mice via i.p. injection once daily for 18 days (treatment group). In parallel, PBS was injected to STZ-induced diabetic mice for 18 days as a control group.\nGTT was also performed at Day 5 and Day 15 in this STZ-induced diabetic model. […] Similar trend was observed between the treatment and control groups at Day 15 (FIGS. 3H-3I)."}, "[2]": {"tested_on": "MIN6 pancreatic beta cells", "assay": "Glucose stimulated insulin secretion assay in MIN6 cells (mouse insulin ELISA)", "type": "cell-based", "conditions": "10, 100 and 1000 nM, n=8; FIG. 5A", "method": "(§1) To verify that the glucose homeostasis is regulated through liver or hepatocytes by overexpression of Plac9 in an insulin-independent manner, an in vitro insulin secretion assay was performed on confluent pancreatic beta cells, MIN6, in each well treated by […] of Exendin-4 or different concentrations of recombinant Plac9 of mouse origin at 10, 100 and 1000 nM (n=8) and measured the insulin content of each well by a mouse insulin ELISA kit. […] A glucose uptake assay was performed on primary hepatocytes and hepatic cell line, HepG2, treated with different concentrations (from 0.125 or 0.25 to 1.0 μM) in the presence or absence of exogenous 10 nM insulin, and the results are shown in FIGS. 5B and 5C, respectively."}, "primary hepatocytes": {"tested_on": "primary hepatocytes", "assay": "Glucose uptake assay (2DG6P) in primary hepatocytes", "type": "cell-based", "method": "as §1"}}, "data": [{"molecule": "mPLAC9: recombinant mouse Plac9 synthesized and purified from E. coli expressing mouse Plac9 represented by SEQ ID NO: 2 (protein, listed as Mus musculus) EWGQGPRDTPGRRAAESPSSPGDLAGSPGCDRHAAVQRRLDIMEETVEKTVEHLEAEVTGLLGLLEELASNLPTGPFSPKPDLLGDDGF", "values": [{"measurement": "body weight change", "setting": "HFD-fed obese mice; 2 mg/kg BW i.p. once daily, 18 days, FIG. 2B", "value": "no obvious weight change"}, {"measurement": "fasting blood glucose level", "setting": "HFD-fed obese mice; 2 mg/kg BW i.p. once daily, 18 days, FIG. 2C", "value": "no obvious changes"}, {"measurement": "feeding blood glucose level", "setting": "HFD-fed obese mice; 2 mg/kg BW i.p. once daily, 18 days, FIG. 2D", "value": "no obvious changes"}, {"measurement": "blood glucose level in glucose tolerance test (GTT)", "setting": "HFD-fed obese mice; Day 0, 90-minute time course, FIGS. 2F-2G", "value": "more significantly reduced"}, {"measurement": "blood insulin concentration", "setting": "HFD-fed obese mice; Day 15, 2 mg/kg BW i.p. once daily, FIG. 2E", "value": "reduced"}, {"measurement": "overall blood glucose level in glucose tolerance test (GTT)", "setting": "HFD-fed obese mice; Day 15, 90-minute time course, FIGS. 2H-2I", "value": "lower"}, {"measurement": "change in body weight", "setting": "[1]; 2 mg/kg BW i.p. once daily, 18 days, treatment vs PBS control, FIG. 3B", "value": "similar"}, {"measurement": "change in fasting glucose level", "setting": "[1]; 2 mg/kg BW i.p. once daily, 18 days, treatment vs PBS control, FIG. 3C", "value": "similar"}, {"measurement": "change in feeding glucose level", "setting": "[1]; 2 mg/kg BW i.p. once daily, 18 days, treatment vs PBS control, FIG. 3D", "value": "similar"}, {"measurement": "overall blood glucose level in GTT", "setting": "[1]; Day 0, 90-minute time course, vs PBS control, FIGS. 3F-3G", "value": "lower"}, {"measurement": "blood insulin level", "setting": "[1]; Day 0 to Day 5, treatment vs PBS control, FIG. 3E", "value": "similar"}, {"measurement": "blood insulin concentration", "setting": "[1]; from Day 5 till the end of the experiment, no change in control group, FIG. 3E", "value": "increased"}, {"measurement": "restoration of blood insulin level to the level measured at Day 0", "setting": "[1]; till the end of the experiment, FIG. 3E", "value": "could not be restored"}, {"measurement": "insulin secretion", "setting": "[2]", "value": "does not induce insulin secretion"}, {"measurement": "glucose uptake", "setting": "primary hepatocytes; 0.125 to 1.0 μM, with or without 10 nM insulin, FIG. 5B", "value": "enhanced by Plac9 is in a dose-dependent manner"}, {"measurement": "glucose uptake on co-administration with insulin", "setting": "primary hepatocytes; co-administration with 10 nM insulin, overall statement for liver or hepatocytes (primary hepatocytes and HepG2)", "value": "further enhance the glucose uptake"}]}]}
